Experimental data: PMC3098157

Columns and labels:
FLAG-tagged LEDGF/p75 WT = FLAG-tagged LEDGF/p75 WT (UniProt O75475)
[1] = biological target: FLAG-tagged LEDGF/p75 ΔPWWP
[2] = biological target: LEDGF/p75 WT (Lens epithelium-derived growth factor/p75) (UniProt O75475)
[3] = biological target: LEDGF/p75 ΔPWWP (stably expressed in HEK293T-derived cells)

| Substance | salt extraction assay, transient coexpression: NaCl needed to extract LEDGF/p75 WT from chromatin with integrase WT (250 mM without integrase) (FLAG-tagged LEDGF/p75 WT) | salt extraction assay, transient coexpression: NaCl needed for complete extraction of LEDGF/p75 ΔPWWP from chromatin with integrase WT (150 mM without integrase) [1] | salt extraction assay: percent of LEDGF/p75 WT extracted from chromatin at NaCl above 200 mM in cells co-expressing HIV-1 integrase (around 70% without integrase) [2] | salt extraction assay: percent of LEDGF/p75 ΔPWWP extracted from chromatin at 100 mM and 150 mM NaCl in cells co-expressing HIV-1 integrase (30% and 70% without integrase) [3] |
| --- | --- | --- | --- | --- |
| Myc-eGFP-tagged HIV-1 integrase WT (enzyme) | > 300 mM | > 200 mM |  |  |
| Myc-tagged HIV-1 integrase (enzyme) |  |  | < 1% | < 2% |
